One may read the Kd as the concentration at which binding is half-saturated.

Among the data in PMC3314109 are Kd values, retold here.

The assay deals with the mutants of both surface loops (39-loop and 60-loop mutants of FXa). The assay is described as follows: prothrombinase activity titration.

“factor Va (thrombin activated factor V) (from UniProt P12259 29-737; P12259 1574-2224) (complex)” showed a Kd of 1 to 2 nM.
